Our source for the transposase activity (fold activity vs wild type) and activity values is patent US5965443.

The target in series [1] is Tn5 transposase EK54 (with MA56, pRZ5412-EK54) P372L (Escherichia coli (transposon Tn5)?) (UniProt Q46731). Put plainly: cell_activity. The conditions noted are these: mutant at position 54 alone; MA56 background inferred.
Series [2] deals with Tn5 transposase EK54/MA56/LP372 (in-cell assay) (Escherichia coli (transposon Tn5)?) (UniProt Q46731). Put plainly: cell_activity. The note with it: at least about 100-fold transposase activity; assay substrate not detailed for this test.
In series [3] the target is Tn5 transposase LP372 K54E (Escherichia coli (transposon Tn5)?) (UniProt Q46731). Put plainly: cell_activity. The conditions noted are these: mutant at position 372 alone; MA56 background inferred.
The target of series [4] is T1, Tn5 transposase EK54/MA56/LP372 (modified, hyperactive) (Escherichia coli (transposon Tn5)?) (UniProt Q46731).
T1 sequence: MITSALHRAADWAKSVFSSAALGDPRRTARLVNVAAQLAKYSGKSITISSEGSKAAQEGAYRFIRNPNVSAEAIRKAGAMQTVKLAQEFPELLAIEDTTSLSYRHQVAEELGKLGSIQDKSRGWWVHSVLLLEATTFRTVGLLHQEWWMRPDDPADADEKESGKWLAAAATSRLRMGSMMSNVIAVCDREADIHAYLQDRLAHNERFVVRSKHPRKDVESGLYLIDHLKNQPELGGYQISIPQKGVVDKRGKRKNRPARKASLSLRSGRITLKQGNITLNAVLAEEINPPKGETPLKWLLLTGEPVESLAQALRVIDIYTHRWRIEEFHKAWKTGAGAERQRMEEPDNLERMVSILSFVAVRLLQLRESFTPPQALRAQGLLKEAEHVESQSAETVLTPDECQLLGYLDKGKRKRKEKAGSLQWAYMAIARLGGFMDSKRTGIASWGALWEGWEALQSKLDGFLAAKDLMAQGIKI
The note with it: in vitro transposition; 0.1 M K glutamate, 25 mM Tris acetate pH 7.5, 10 mM Mg acetate, 20 C 60 min then 37 C 2-3 h; underestimates total events; scale: % of plasmid-receiving cells.

Where only a bound is given, the exact number is not on record here.

Turning to “lacZ-containing Tn5 transposable element in E. coli MDW320”, the transposase activity (fold activity vs wild type) in series [1] is 10; in series [2] it was over 100; in series [3], 10.
Take “pRZTL1 circular plasmid (two inverted Tn5 19 bp OE termini)”: the activity in series [4] was 0.1.
